According to a protein production outcome set (Wang et al. 2014):

Assay: label from the status in PepcDB records
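Also: failed if final PepcDB status was selected cloned or expressed and not failed if soluble or beyond.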

Row | Sequence | protein production
1 | MKAVILAAGRGSRLQALTDERPKALVPFNGVPLLQRAIETLRRCDVSEVGIVAGYRSEMLAPFADTLFYNHRWHSSGIFSSLNCASDWLSAEPCLVSYGDIFYDSTLVSELINHPADIVLGYDPAAVRLWQQRFNDPLPDLENFRLVDGWVSAIGQTATSLEVIQGQYMGLFKVTPAGWQALKKQLQGLTPQARDQTDMTSLLGTLVSEGFPVAGVATHAPWGEIDCPSDVALYERIYPDRLEHHHHHH | failed
2 | MKAVLFDLDGTLIDTAADFIRIIQEMCREEQREVVDADLIRTQVSEGARAMVKLVYPELAVDDAVFLTHRQRFLDRYEQNIVVDTDLFKGMYPLLEMLESQQIPWGIVTNKPRHLTELLLERLNLTERCAVLVCPEDVQRTKPDPEPMFLAATQLHIAPEQIIYVGDHPRDIDAGRAAHMYTILAAYGYLPLQHKDNLNAWQADVIVQHVTELQKILSQQLHITPLNQDTMLQTS | failed
3 | MKAVRVHILGSGGREHAIGWAFAKQGYEVHFYPGNAGTKRDGTNHPYEGEKTLKAIPEEDIVIPGSEEFLVEGVSNWRSNVFGPVKEVARLEGSKVYAKRFMKKYGIRTARFEVAETPEELREKIKKFSPPYVIKADGLARGKGVLILDSKEETIEKGSKLIIGELIKGVKGPVVIDEFLAGNELSAMAVVNGRNFVILPFVRDYKRLMDGDRGPNTGGMGSWGPVEIPSDTIKKIEELFDKTLWGVEKEGYAYRGFLYLGLMLHDGDPYILEYNVRLGDPETEVIVTLNPEGFVNAVLEGYRGGKMEPVEPRGFAVDVVLAARGYPDAPEKGKEITLPEEGLIFFAGVAEKDGKLVTNGGRVLHCMGTGETKEEARRKAYELAEKVHFEGKTYRRDIAL | not failed
4 | MKDCCGGYESEELLMDFSGKDKAAYVQDTFNSIAKRYDVMNTLMSFGLDKGWRKKAVQTVEAKPGMTMVDICCGTAQLSLELAMTVGEQGQITGLDFSENMLKKAQENLAGSPYRSIIELRQGDAMNLPFADNSFDGATVGWGLRNLPDLEKGVQEMIRVVKPGGMVVSLDMAKPTMPGFKQGYWLYFNKLVPLMGKIWAGKAKAYQYLHDSAVEFPSQQELANIFARCGLTETRYQNLAGGVVAIVSGRKPR | failed
5 | MKDFWTWERLSFHMVLAYNDDRSFLINTGMPLDLTLRNQEMKKFAGDRAIFRSEDSIEMLRKAGFTPDDIDYVALTPVQDYTIGRLNEFRKSKIFIFRDGWIKDIAAPAYAYFHNRDLFIPKNIFDFVYGEGWKNIIFYDGETELVPGIRAIPVGCHHRSSVAFAINAKDGTYVFTDASFKAENVRNRIPIGIAENIYECLSAYEKIEKIGKLLPAYDPAIDDLYIKLEHHHHHH | not failed
6 | MKDIVIIGTENIGKEVVKIIEAINSKRNTWNVLGFISLKKDEEGSNIEGYSVLESIDSMFNYFEGRKKDKFYFFKKLESQNELFTIIAIDNCKLKKEIENKLKNKIKFATIIHPDVSFFNKQEVGEGTIIYPGLIVVGRFKLGKHVILKQKCSLGNNIEIGDYSFISFNSNIDSNVMVKEGSYIEANTTILANSNIDKNTYIKEGSILY | failed
7 | MKDIYELLNDIDIDEKELEEIEASEIEKEKVKRNVKQSIRTKKKMKSWKKGVAAASILVGLSVTTLGIGFPTYAGGLPIVGDIFRFLDNGRTGLYENYKEFSTELNMTRESNGVKVTINDVISDGRTLSITYSLESEQDLGDDPIILGGLDIMDAHGSSGSGKMTKVTEKKYVGMVTTTHHDSNKKDKVNFRWNIEGIEIPDRKKSIQGHWNFALTVKSMDSKERTIGGSSEKEGIKANMEKVAMSPVSFILYYNQEVSKGARKEWDSVDVELTVKDDLGNDYSGEGNGGSGNDPYNIRWSATFQKLNENATKLIVTPRVHLRVHTPENHGGVEYVNGKEKKIEVPNKEAKKKDIVLDDIVIDLKK | not failed
8 | MKDNTPASSPERWIIYGANGYTGELIAREAVKRGHHPILAGRSLEKVQSLAAELGLQSLAFSLEDKSSAVQHISGSSLVLNCAGPFSSTAKPMMKACLEAGAHYLDITGEISVFEFAQTLQSQAKEASVVLCSGVGFDVIPTDCIAATLKAALPDATHLSLGFDSRSGFSPGTAKTSVEGLAQGGKVRLNGKITTVPLAYKVHNIDFGDGEKLAMTIPWGDVSTAYYTTGIENIDVFIPGSPNMIKNAKRANWVRPLLGITWVQNLIKSRIERTVKGPNEEQRNQLPTYVWGKASNKLGQSKTARVQTANGYSLTVTGSLAIVEHLLHTKPEAGVYTPSKLMGSNFVSQLPGSSGITIEE | failed
9 | MKDSMFLYEFDLFRYSKDLTALSFLLLIGSSLTVHWVSLSMSSSRDLLHYLVLPLILVVILHEGLHALTAKLSGAKTSLGVLTKYGIILAVYVGINTPLPVKKIRYITIAPIIISIVAFFFSWVTYSPFWAILYIFNTTGIVGDLIVFLVLSKMPSDAIVVDEGTIMKSNAEFPEPYPSWFSKLIIGLAVLVFLYILTNIRIEFEVVGTLPNQTMPVNSHFE | failed
10 | MKEDAGNPLHLTSLNHVSVLCRSVDESMNFYQKVLGFIPIRRPESLNFEGAWLFGHGIGIHLLCAPEPEKLPKKTAINPKDNHISFQCESMGVVEKKLEEMGIDYVRALVEEGGIQVDQLFFHDPDGFMIEICNCDSLPVVPLVGEMARSCSRVKLHQMVQPQPQTQIHQVVYP | failed
11 | MKEELFKEKSRYITGFVLIIVADLILYADNLLLFWAVLGGIYAVGFSEALRLFQVKASFSLYLILVLSWVAAYFNGRPIECALISAMVMASVIAYQKAHHSEAILPFLYPGVGFFALFGVYKDFGAVAIIWLLVVVVASDVGAFFGGKLLGKTPFTPTSPNKTLEGALIGVVLASVLGSFVGMGKLSGGFFMALFFSFLIALVAVFGDLYESYLKRKVGIKDSGKILPGHGGVLDRLDSMLFGALGLHALLYFLEIWKETAVFLGD | failed
12 | MKEIDELTIKEYGVDSRILMERAGISVVLAMEEELGNLSDYRFLVLCGGGNNGGDGFVVARNLLGVVKDVLVVFLGKKKTPDCEYNYGLYKKFGGKVVEQFEPSILNEFDVVVDAIFGTGLRGEITGEYAEIINLVNKSGKVVVSVDVPSGIDSNTGKVLRTAVKADLTVTFGVPKIGHILFPGRDLTGKLKVANIGHPVHLINSINRYVITREMVRSLLPERPRDSHKGTYGKVLIIAGSRLYSGAPVLSGMGSLKVGTGLVKLAVPFPQNLIATSRFPELISVPIDTEKGFFSLQNLQECLELSKDVDVVAIGPGLGNNEHVREFVNEFLKTLEKPAVIDADAINVLDTSVLKERKSPAVLTPHPGEMARLVKKTVGDVKYNYELAEEFAKENDCVLVLKSATTIVTDGEKTLFNITGNTGLSKGGSGDVLTGMIAGFIAQGLSPLEASTVSVYLHGFAAELFEQDERGLTASELLRLIPEAIRRLKE | not failed
13 | MKEIQYEIVKEIAVLSASDSGYTKEINLISWNGREPKYDIRSFSPNREKCGKGITLNADEAAALLEALQKEVNSGD | failed
14 | MKEKVQSPELRFDGFTDGWEQRKFADFIDVKSGKDYKHLNSGSIPVYGTGGYMLSVDRALSDIDAIGFGRKGTIDKPYLLKAPFWTVDTFFYAVPKQNIDLQFSLSIF | failed
15 | MKELSKSDRTRQFIIESTAPVFNVKGLAGTSLTDLTEATNLTKGSIYGNFENKEAVAIAAFDYNWGHVKSVLTAKVQACNTYKEMLLVYSSMYNDADGSLFPVGGCPLLNTTIEADDTHDALRKKAGEAILSWKKNLVTIIKKGIQAKEFRPDTDVTKIAFSMIALVEGAILIHRATKNRAYSDYVFESLEDLIAGIEVKKK | not failed
16 | MKENLELVEFFEYLLILVLNMLVASIVFLQEYCIGSIRLSHYRRIFATVMAIRSLVSIWIIYPMTATLLGTLNILVIQSIILLFLWGLMQCVKKYRGKWYITMIALIIYGLSCYFHIMYAKTV | failed
17 | MKEQYRNQNTFLSMIDMDLIRRGLLHAIQDLVFIVKVMDDETFTYIYVNKIGMDYAKLSEECYGKTFSEVLPKDTAEILQVQYAKVASEVKAHTFCDVVSLPTGNLHYESSLNPVFDEEGVCQFIICITRDIT | failed
18 | MKFAFVFPGQGSQSVGMLNAFADVAVVRETLDEASDALGQDIGKLIADGPADELNLTTNTQPVMLTAAYACYRAWQQAGGAQPSIVAGHSLGEYTALVAAGAIAFRDALPLVRFRAQAMQTAVPVGVGGMAAILGLDDDTVRAVCAEASATGVVEAVNFNAPAQVVIAGTKAGIEKACEIAKEKGAKRALPLPVSAPFHSSLLKPASDKLREYLAGVDVKAPKISVVNNIDVAVVSDPAAIKDALVRQAAGPVRWVECVQHIAREGVTHVIECGPGKVLAGLTKRIDGNLVGASVFDPASLDEALKLAAA | not failed
19 | MKFFQRTVLEPAYQGAQLHPGKLSGIYQNEILCNSLFHHYKQRTLKLGRELESRLKHLYHLVRMALPGTVSANTTRRSPANSIHTEVQIDSRTDTHLPQVSDDEDLRWIRTGLPHQYHAYLAIDRLKSSHHLAGQSVLCIGGRAALYPNYHQLIEAAGGHFMVFRGGAQDNSECLLALLARVDSIICPVDCINHEDFFTVRRYCQRTGKNCVMLERSDLVTFGKAVETLARGDCHNSETLEHHHHHH | failed
20 | MKFGRRATSRTEPGKRCVARPRYNSAMSEFTDSAAGRSATSPADASSSALRRLRAIQPLPDQLISQIAAGEVVERPASVVKELVENALDAGAGTLRILLDEGGVKRISITDDGCGIPAAELPLALMRHATSKIRSLAELEAVATLGFRGEALASIASVAEMFITSRTEDDAHATRIDAQTGVLAPAAGTRGTTIEVRELYFSTPARRKFLKSEQTEFGHCLEMIRRAALARPDVAISVLHNGRAVEHWNASEPAARVAKILGDGFATAHLPLDERAGPLAVYGCAGLPTASRGRADQQYFFVNGRFVRDKLLTHAVRAAYEDVLHGDRYPSYVLFLDLPPEAVDVNVHPSKIEVRFRDSRSIHQFVFHAVQRALARHAGASPETTAGGHAAHLSPVEPAQAGSPAAPSASFVRPDAAAAGAGVGHPAPGNTWLRQSRMTQGTLPVAQPLALYDALFGRKDSGAGTPHGTTGVLEARDAPDAPGAPLFASAPGGAAMPAFSAAGASDPAMHDEQPLGFAVGQIHGIYVLAQNARGLVIVDMHAAHERILYEQFKRALADRTVAVQTLLIPVSMTATPVEVGTAEEERETLDALGFDLAVLSPTTLAIRAVPALLKDADLQALARAVLADLHAFGGSRVLTERQHELLGTLACHHAVRANRRLTLDEMNALLRQMEATERADQCNHGRPTWYQLTLGDLDKLFMRGQ | failed
21 | MKFILRLGLALLTGFVSVSTASAQAYGTADTNAPELRVPKSVQPAFDYWMRDTWATLGPDGYYYITGTTSTPDRHFPGQRHCWDWNDGLYLWRSKDLKIWEAMGRIWSMEKDGTWQKDPKVYKEGEKYAKKSINNDPMDNRFHAVWAPEMHYIKSAKNWFIVACMNQSAGGRGSFILRSTTGKPEGPYENIEGNEDKAIFPNIDGSLFEDTDGTVYFVGHNHYIARMKPDMSGLAEEIKTLKESKYSPEPYVEGAFIFKYDGKYHLVQAIWAHRTVKGDTYVEKEGLTNKKTRYSYDCIIATADNVYGPYGKRYNAITGGGHNNLFQDKDGNWWATMFFNPRGAQAAEYKVTCRPGLIPMLYENGKFKPNHNYQAK | failed
22 | MKFIRRCMMETRYTVRQAVEMTGVKSYVLRYWEEELELQIHRNELGHRYYTGYDIQLFLNIKELKKRGLQLRAIKNLIPQITASMTGFGESASTLLEGEVIDHAEVKTDRDLKEKISKKDEGKNDKILEFQAILERLITQELKAQNEDEERCRSLDYAIRRQQLARKEAAAAAEKKSGRRRRDK | not failed
23 | MKFKRLRTSENKLYYKAMELYKISFPFHEQRKSSLQEEILKNKEYQFNLIYDKNQFVGIILCWETDDFIYVEHFCIFPEMRNNRYGQRALELLNKKGKTIILEIDLPIDEISIYRKAFYERVKYKTNNYEHIHPPYHEKFNGHNLIVMSYPEKLSKMEYDKFNHYLRNNVMSF | failed
24 | MKFLTTNFLKCSVKACDTSNDNFPLQYDGSKCQLVQDESIEFNPEFLLNIVDRVDWPAVLTVAAELGNNALPPTKPSFPSSIQELTDDDMAILNDLHTLLLQTSIAEGEMKCRNCGHIYYIKNGIPNLLLPPHLV | failed
